Data on one substance can be found in PMC9486808.

Where two headings read alike, the source gives them in different places.

Common to all, as to assay: fluorescence polarisation
Background: In fluorescence polarisation assays a small probe gives low polarisation when free and higher when bound to something large.

The target in assay [1] is L4-FAM: Cyclo(Ac-…)pa[…]-NH2.
Assay [2] concerns the target S5-FAM: Cyclo(Ac-y…)pa[…]-NH2.
Assay [3] concerns the target L2-FAM: Cyclo(Ac-…)LFAApa[…]-NH2.
The target of assay [4] is S3-FAM: Cyclo(Ac-y…)pa[…]-NH2.
Assay [5] concerns the target L4-FAM: Cyclo(Ac-…)pa[…]-NH2. The source holds these as a separate data set.
In assay [6] the target is S5-FAM: Cyclo(Ac-y…)pa[…]-NH2. This is another data set of the same source.
Assay [7] concerns the target S3-FAM: Cyclo(Ac-y…)pa[…]-NH2. This is another data set of the same source.

For “Recombinant soluble trimeric H1 HA ectodomain of A/California/04/2009 (H1N1), fused to GCN4 trimeriz (domain or fragment)”, the Kd in assay [1] is 1.1 nM; in assay [2] it was 1 nM; in assay [3] it was 2.4 nM; in assay [4], 1.3 nM; in assay [5], 0.6 nM; in assay [6] it was 0.6 nM. Besides, the Kd in assay [7] came out at 0.8 nM.

Broadly, the Kd is the free concentration of one partner at which half of the binding sites on the other are occupied at equilibrium, for simple one-to-one binding. A lower Kd goes with tighter binding.
